Residues, ends and D or L forms follow the SMILES beside them.
T1: human NMUR1 receptor (Homo sapiens, UniProt Q9HB89)
T1 construct: expressed in transfected cells; host or cells: CHO-K1
T1 sequence (Q9HB89 1-426): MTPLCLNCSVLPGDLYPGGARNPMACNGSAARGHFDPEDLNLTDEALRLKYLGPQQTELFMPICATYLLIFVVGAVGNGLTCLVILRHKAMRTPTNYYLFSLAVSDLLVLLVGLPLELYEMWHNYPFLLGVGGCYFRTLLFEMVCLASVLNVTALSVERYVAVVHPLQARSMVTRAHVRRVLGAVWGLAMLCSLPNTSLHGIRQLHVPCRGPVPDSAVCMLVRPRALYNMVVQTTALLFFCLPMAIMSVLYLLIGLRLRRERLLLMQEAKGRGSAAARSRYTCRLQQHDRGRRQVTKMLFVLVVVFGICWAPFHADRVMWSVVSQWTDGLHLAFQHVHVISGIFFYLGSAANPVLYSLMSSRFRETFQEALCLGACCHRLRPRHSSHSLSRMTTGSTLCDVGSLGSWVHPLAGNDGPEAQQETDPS

T2: human neuromedin U receptor 1 (human, UniProt Q9HB89 24-426)
T2 sequence (looked up): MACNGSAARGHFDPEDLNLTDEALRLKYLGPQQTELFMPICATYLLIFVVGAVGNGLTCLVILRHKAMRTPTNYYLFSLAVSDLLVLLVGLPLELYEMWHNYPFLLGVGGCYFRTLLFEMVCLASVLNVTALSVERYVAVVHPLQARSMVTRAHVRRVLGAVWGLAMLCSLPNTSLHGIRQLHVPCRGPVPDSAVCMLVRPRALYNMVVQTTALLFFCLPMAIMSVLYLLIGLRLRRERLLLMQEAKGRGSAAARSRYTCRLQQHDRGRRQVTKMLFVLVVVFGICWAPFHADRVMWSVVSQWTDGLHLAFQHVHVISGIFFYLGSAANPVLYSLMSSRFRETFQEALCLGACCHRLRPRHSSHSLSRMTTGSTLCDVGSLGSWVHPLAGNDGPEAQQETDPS


Columns and labels:
human NMUR1 receptor = molecular target: T1, human NMUR1 receptor; assay: IP1 Gq HTRF assay, activation of human NMUR1 in buffer; type: cell-based; settings: CHO-K1 cells expressing human NMUR1, stimulation buffer with 0.1% BSA; read-out: EC50 (hNMUR1) buffer
In short: (§1)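 IP-One HTRF competition (665/620 nm ratio) read after 1 h agonist exposure at 37 °C in pH 7.4 HEPES/HBSS stimulation buffer containing 50 mM LiCl, 0.1% BSA, 1% DMSO. Cells: CHO-K1 stably expressing human NMUR2 or NMUR1. EC50 by 4-parameter nonlinear regression of 8-point curves.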

human NMUR2 receptor [1] = molecular target: T3, human NMUR2 receptor (Homo sapiens, UniProt Q9GZQ4); assay: IP1 Gq HTRF assay, activation of human NMUR2 in buffer; type: cell-based; set-up: expressed in transfected cells; host or cells: CHO-K1; settings: CHO-K1 cells expressing human NMUR2, stimulation buffer with 0.1% BSA; read-out: EC50 (hNMUR2) buffer
T3 sequence (Q9GZQ4 whole entry): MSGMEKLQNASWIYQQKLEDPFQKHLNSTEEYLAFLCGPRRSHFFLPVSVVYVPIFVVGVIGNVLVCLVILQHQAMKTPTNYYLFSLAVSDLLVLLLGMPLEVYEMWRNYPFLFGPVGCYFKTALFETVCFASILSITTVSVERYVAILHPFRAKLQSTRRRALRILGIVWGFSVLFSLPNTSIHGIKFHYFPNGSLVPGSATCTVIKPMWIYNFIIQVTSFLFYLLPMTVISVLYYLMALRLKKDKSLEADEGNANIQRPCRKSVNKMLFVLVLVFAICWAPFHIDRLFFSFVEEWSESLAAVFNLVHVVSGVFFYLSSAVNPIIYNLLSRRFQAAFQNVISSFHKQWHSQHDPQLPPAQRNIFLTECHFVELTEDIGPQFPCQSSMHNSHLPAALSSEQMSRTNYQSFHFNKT
In short: as §1

human NMUR2 receptor [2] = molecular target: T3, human NMUR2 receptor; assay: IP1 Gq HTRF assay, activation of human NMUR2 in human plasma; type: cell-based; set-up: expressed in transfected cells; host or cells: CHO-K1; settings: CHO-K1 cells expressing human NMUR2, 100% human plasma; read-out: EC50 (hNMUR2) human plasma
In short: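 EC50 obtained via 4-parameter sigmoidal regression of HTRF IP-One signal (665 nm/620 nm), which falls as intracellular IP1 rises. Stimulation: 1 h, 37° C, peptides in human plasma plus 50 mM LiCl, 1% DMSO final, on NMUR2-expressing CHO-K1 cells, 8 concentrations.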

[3] = molecular target: T2, human neuromedin U receptor 1; assay: cell-based or functional assay

EC50 (hNMUR1) buffer [3] [nM] | Molecule | other results
– | CCCC[C@H](NC(=O)[C@H](CC(C)C)N(C)C(=O)[C@H](Cc1ccccc1)NC(=O)[C@H](Cc1ccc(O)cc1)NC(=O)CN1CCN(C(=O)CN(C)C(=O)CN(C)C(=O)CN(C)C(=O)CN(C)C(=O)CN(C)C(=O)CN(C)C(=O)CN(C)C(=O)CN(C)C(=O)CN(C)C(=O)CN(C)C(=O)CN(C)C(=O)CN(C)C(=O)CN(C)C(=O)CN(C)C(=O)CN(C)C(=O)CC[C@H](NC(=O)CC[C@H](NC(=O)CC[C@H](NC(=O)CCCCCCCCCCCCCCCCC(=O)O)C(=O)O)C(=O)O)C(=O)O)CC1)C(=O)N[C@@H](CCN)C(=O)N(C)[C@@H](C)C(=O)N[C@@H](CCCNC(=N)N)C(=O)NCC(N)=O [Compound 79, C18DA-gGlu3-Sar15-PipAc-Tyr-Phe-NMeLeu-Nle-Dbu-NMeAla-Arg-Gly-NH2] (HELM PEPTIDE1{[O=C(O)CCCCCCCCCCCCCCCCC(=O)[*:2]].[gGlu].[gGlu].[gGlu].[Sar].[Sar].[Sar].[Sar].[Sar].[Sar].[Sar].[Sar].[Sar].[Sar].[Sar].[Sar].[Sar].[Sar].[Sar].[O=C(CN1CCN([*:1])CC1)[*:2]].Y.F.[meL].[Nle].[Dab].[meA].R.G.[am]}$$$$V2.0) | EC50 (human NMUR1 receptor): > 1000 nM; EC50 (human NMUR2 receptor [1]): 1.3 nM; EC50 (human NMUR2 receptor [2]): 7 nM
1300 | EEEXXXXXXXXXXXXXYFLXRARG (HELM PEPTIDE1{[O=C(O)CCCCCCCCCCCCCCCCC(=O)[*:2]].[gGlu].[gGlu].[gGlu].[Sar].[Sar].[Sar].[Sar].[Sar].[Sar].[Sar].[Sar].[Sar].[Sar].[Sar].[Sar].[O=C(CN1CCN(CCN[*:1])CC1)[*:2]].Y.F.[meL].[Nle].[meR].[meA].R.G.[am]}$$$$V2.0; SMILES CCCC[C@H](NC(=O)[C@H](CC(C)C)N(C)C(=O)[C@H](Cc1ccccc1)NC(=O)[C@H](Cc1ccc(O)cc1)NC(=O)CN1CCN(CCNC(=O)CN(C)C(=O)CN(C)C(=O)CN(C)C(=O)CN(C)C(=O)CN(C)C(=O)CN(C)C(=O)CN(C)C(=O)CN(C)C(=O)CN(C)C(=O)CN(C)C(=O)CN(C)C(=O)CN(C)C(=O)CC[C@H](NC(=O)CC[C@H](NC(=O)CC[C@H](NC(=O)CCCCCCCCCCCCCCCCC(=O)O)C(=O)O)C(=O)O)C(=O)O)CC1)C(=O)N(C)[C@@H](CCCNC(=N)N)C(=O)N(C)[C@@H](C)C(=O)N[C@@H](CCCNC(=N)N)C(=O)NCC(N)=O) [C18DA-gGlu3-Sar12-AEPipAc-Tyr-Phe-NMeLeu-Nle-NMeArg-NMeAla-Arg-Gly-NH2] | –
1400 | EEEXXXXXXXXXXXXXXXXYFLXRARG (HELM PEPTIDE1{[O=C(O)CCCCCCCCCCCCCCCCCCC(=O)[*:2]].[gGlu].[gGlu].[gGlu].[Sar].[Sar].[Sar].[Sar].[Sar].[Sar].[Sar].[Sar].[Sar].[Sar].[Sar].[Sar].[Sar].[Sar].[Sar].[O=C(CN1CCN(CCN[*:1])CC1)[*:2]].Y.F.[meL].[Nle].[meR].[meA].R.G.[am]}$$$$V2.0; SMILES CCCC[C@H](NC(=O)[C@H](CC(C)C)N(C)C(=O)[C@H](Cc1ccccc1)NC(=O)[C@H](Cc1ccc(O)cc1)NC(=O)CN1CCN(CCNC(=O)CN(C)C(=O)CN(C)C(=O)CN(C)C(=O)CN(C)C(=O)CN(C)C(=O)CN(C)C(=O)CN(C)C(=O)CN(C)C(=O)CN(C)C(=O)CN(C)C(=O)CN(C)C(=O)CN(C)C(=O)CN(C)C(=O)CN(C)C(=O)CN(C)C(=O)CC[C@H](NC(=O)CC[C@H](NC(=O)CC[C@H](NC(=O)CCCCCCCCCCCCCCCCCCC(=O)O)C(=O)O)C(=O)O)C(=O)O)CC1)C(=O)N(C)[C@@H](CCCNC(=N)N)C(=O)N(C)[C@@H](C)C(=O)N[C@@H](CCCNC(=N)N)C(=O)NCC(N)=O) [C20DA-gGlu3-Sar15-AEPipAc-Tyr-Phe-NMeLeu-Nle-NMeArg-NMeAla-Arg-Gly-NH2] | –
770 | EEEEXXXXXXXXXXXXXXXXYFLXXPRG (HELM PEPTIDE1{[O=C(O)CCCCCCCCCCCCCCCCCCC(=O)[*:2]].[gGlu].[gGlu].[gGlu].[gGlu].[Sar].[Sar].[Sar].[Sar].[Sar].[Sar].[Sar].[Sar].[Sar].[Sar].[Sar].[Sar].[Sar].[Sar].[Sar].[O=C(CN1CCN(CCN[*:1])CC1)[*:2]].Y.F.[meL].[Nle].[Dab].P.R.G.[am]}$$$$V2.0; SMILES CCCC[C@H](NC(=O)[C@H](CC(C)C)N(C)C(=O)[C@H](Cc1ccccc1)NC(=O)[C@H](Cc1ccc(O)cc1)NC(=O)CN1CCN(CCNC(=O)CN(C)C(=O)CN(C)C(=O)CN(C)C(=O)CN(C)C(=O)CN(C)C(=O)CN(C)C(=O)CN(C)C(=O)CN(C)C(=O)CN(C)C(=O)CN(C)C(=O)CN(C)C(=O)CN(C)C(=O)CN(C)C(=O)CN(C)C(=O)CN(C)C(=O)CC[C@H](NC(=O)CC[C@H](NC(=O)CC[C@H](NC(=O)CC[C@H](NC(=O)CCCCCCCCCCCCCCCCCCC(=O)O)C(=O)O)C(=O)O)C(=O)O)C(=O)O)CC1)C(=O)N[C@@H](CCN)C(=O)N1CCC[C@H]1C(=O)N[C@@H](CCCNC(=N)N)C(=O)NCC(N)=O) [C20DA-gGlu4-Sar15-AEPipAc-Tyr-Phe-NMeLeu-Nle-Dbu-Pro-Arg-Gly-NH2] | –
> 1000 | EEEXXXXXXXXXXXXXXXXYFLXXARG (HELM PEPTIDE1{[O=C(O)CCCCCCCCCCCCCCCCCCC(=O)[*:2]].[gGlu].[gGlu].[gGlu].[Sar].[Sar].[Sar].[Sar].[Sar].[Sar].[Sar].[Sar].[Sar].[Sar].[Sar].[Sar].[Sar].[Sar].[Sar].[O=C(CN1CCN(CCN[*:1])CC1)[*:2]].Y.F.[meL].[Nle].[Orn].[meA].R.G.[am]}$$$$V2.0; SMILES CCCC[C@H](NC(=O)[C@H](CC(C)C)N(C)C(=O)[C@H](Cc1ccccc1)NC(=O)[C@H](Cc1ccc(O)cc1)NC(=O)CN1CCN(CCNC(=O)CN(C)C(=O)CN(C)C(=O)CN(C)C(=O)CN(C)C(=O)CN(C)C(=O)CN(C)C(=O)CN(C)C(=O)CN(C)C(=O)CN(C)C(=O)CN(C)C(=O)CN(C)C(=O)CN(C)C(=O)CN(C)C(=O)CN(C)C(=O)CN(C)C(=O)CC[C@H](NC(=O)CC[C@H](NC(=O)CC[C@H](NC(=O)CCCCCCCCCCCCCCCCCCC(=O)O)C(=O)O)C(=O)O)C(=O)O)CC1)C(=O)N[C@@H](CCCN)C(=O)N(C)[C@@H](C)C(=O)N[C@@H](CCCNC(=N)N)C(=O)NCC(N)=O) [C20DA-gGlu3-Sar15-AEPipAc-Tyr-Phe-NMeLeu-Nle-Orn-NMeAla-Arg-Gly-NH2] | –
190 | EEEXXXXXXXXXXXXXYFLXRPRG (HELM PEPTIDE1{[O=C(O)CCCCCCCCCCCCCCCCC(=O)[*:2]].[gGlu].[gGlu].[gGlu].[Sar].[Sar].[Sar].[Sar].[Sar].[Sar].[Sar].[Sar].[Sar].[Sar].[Sar].[Sar].[O=C(CN1CCN(CCN[*:1])CC1)[*:2]].Y.F.[meL].[Nle].[meR].P.R.G.[am]}$$$$V2.0; SMILES CCCC[C@H](NC(=O)[C@H](CC(C)C)N(C)C(=O)[C@H](Cc1ccccc1)NC(=O)[C@H](Cc1ccc(O)cc1)NC(=O)CN1CCN(CCNC(=O)CN(C)C(=O)CN(C)C(=O)CN(C)C(=O)CN(C)C(=O)CN(C)C(=O)CN(C)C(=O)CN(C)C(=O)CN(C)C(=O)CN(C)C(=O)CN(C)C(=O)CN(C)C(=O)CN(C)C(=O)CC[C@H](NC(=O)CC[C@H](NC(=O)CC[C@H](NC(=O)CCCCCCCCCCCCCCCCC(=O)O)C(=O)O)C(=O)O)C(=O)O)CC1)C(=O)N(C)[C@@H](CCCNC(=N)N)C(=O)N1CCC[C@H]1C(=O)N[C@@H](CCCNC(=N)N)C(=O)NCC(N)=O) [C18DA-gGlu3-Sar12-AEPipAc-Tyr-Phe-NMeLeu-Nle-NMeArg-Pro-Arg-Gly-NH2] | –

Reference: US20240279278A1, “NMU RECEPTOR 2 AGONISTS” (Boehringer Ingelheim International GmbH, priority 2023, published 2024)
